These results are taken from US20090175892A1 (INSTITUT PASTEUR, published 2009).

Assay [1] deals with T1, HLA-B*0702 molecule on HLA-B*0702 transfected TAP deficient T2 cells (T2-B7) (human).
T1 construct: MHC class I molecule without a defined peptide, on the surface of T2-B7 cells; its surface level was read with the anti-HLA-B7 mAb ME.1 by flow cytometry; also called HLA-B7
Briefly: MHC stabilization assay on T2-B7 cells, flow cytometry with ME.1; ratio of concentration giving 20% of maximal binding against reference peptide R10TV. How it is done: The relative avidity of hTERT derived peptides for HLA-*B0702 was measured by using a MHC stabilization assay on HLAB0702 transfected T2 (T2-B7) cells in comparison with a reference peptide (R10TV) as described (Rohrlich et al. Int Immunol 2003; 15:765-72). Briefly, T2-B7 were incubated overnight at 2×10⁵ cells/well in 96-well plates in serum free medium AIM-V (Invitrogen Corp., Gibco), supplemented with 100 ng/ml of human β2-microglobulin, in the absence (negative control) or in the presence of either reference peptide […] or hTERT peptides at various final concentrations (100, 10, 1 and 0.1 μM). T2-B7 cells were labelled with a saturating concentration of ME.1 an anti-HLA-B7 mAb, then washed twice and finally stained with FITC-conjugated F(ab′)2 goat anti-mouse Ig before flow cytometry.
(In general: Flow cytometry measures light scatter and fluorescence of single cells or particles in a stream.)

For assay [2], the target named is T1, HLA-B*0702 molecule on HLA-B*0702 …. Briefly: MHC stabilization assay on T2-B7 cells, ME-1 staining; ratio of concentration inducing 20% of HLA-B*0702 expression against reference peptide CMV265-274. From the text:
The protocol used has been described previously (Rohrlich et al., 2003).

B1: hTERT peptide p4 (APRCRAVRSL, residues 4-13) (peptide)
peptide: APRCRAVRSL
notes: Synthetic peptide, minimum purity 80%
B1: the relative avidity in assay [1] was 0.3 ratio.

B2: hTERT peptide analogue p444* (APRRLVQLL) (peptide)
peptide: APRRLVQLL
notes: Synthetic peptide (Epytop); also called optimized p444*
On to B2, for which the “RA (relative affinity)” value in assay [2] amounted to 1.4 ratio.

B3: hTERT peptide p351 (RPSLTGARRL, residues 351-360) (peptide)
peptide: RPSLTGARRL
notes: as for B1
Turning to B3, the relative avidity in assay [1] came to 1.5 ratio.

B4: hTERT peptide p1 (MPRAPRCRA, residues 1-9) (peptide)
peptide: MPRAPRCRA
notes: as for B1
Turning to B4, the relative avidity in assay [1] stood at 0.4 ratio.

B5: hTERT peptide p68 (APSFRQVSCL, residues 68-77) (peptide)
peptide: APSFRQVSCL
notes: as for B1
For B5, the relative avidity in assay [1] was 0.4 ratio.
